Data: patent US20030165811A1, “Method for determining the activity of ornithine decarboxylase and for identifying effectors of ornithine decarboxylase activity” (priority 2001, published 2003)

B1: antizyme inhibitor: human antizyme inhibitor, binds antizyme and releases ODC; full-length clone from human liver cDNA, expressed in yeast (protein, UniProt O14977 1-448, looked up)
chain: MKGFIDDANYSVGLLDEGTNLGNVIDNYVYEHTLTGKNAFFVGDLGKIVKKHSQWQNVVAQIKPFYTVKCNSAPAVLEILAALGTGFACSSKNEMALVQELGVPPENIIYISPCKQVSQIKYAAKVGVNILTCDNEIELKKIARNHPNAKVLLHIATEDNIGGEEGNMKFGTTLKNCRHLLECAKELDVQIIGVKFHVSSACKESQVYVHALSDARCVFDMAGEIGFTMNMLDIGGGFTGTEFQLEEVNHVISPLLDIYFPEGSGVKIISEPGSYYVSSAFTLAVNIIAKKVVENDKFPSGVEKTGSDEPAFMYYMNDGVYGSFASKLSEDLNTIPEVHKKYKEDEPLFTSSLWGPSCDELDQIVESCLLPELNVGDWLIFDNMGADSFHEPSAFNDFQRPAIYYMMSFSDWYEMQDAGITSDSMMKNFFFVPSCIQLSQEDSFSAEA
modifications: full-length
notes: full-length clone from human liver cDNA, expressed in yeast
B2: antizyme 3: human ODC antizyme 3 (Acc. No. AF175296), expressed in yeast from plasmid (protein, UniProt Q9UMX2 1-235, looked up)
Ornithine decarboxylase …: MPCKRCRPSVYSLSYIKRGKTRNYLYPIWSPYAYYLYCYKYRITLREKMLPRCYKSITYKEEEDLTLQPRSCLQCSESLVGLQEGKSTEQGNHDQLKELYSAGNLTVLATDPLLHQDPVQLDFHFRLTSQTSAHWHGLLCDRRLFLDIPYQALDQGNRESLTATLEYVEEKTNVDSVFVNFQNDRNDRGALLRAFSYMGFEVVRPDHPALPPLDNVIFMVYPLERDVGHLPSEPP
B3: antizyme 2: human ODC antizyme 2 (Acc. No. AF057297), expressed in yeast from plasmid (protein, UniProt O95190 1-189, looked up)
Ornithine decarboxylase …: MINTQDSSILPLSNCPQLQCCRHIVPGPLWCSDAPHPLSKIPGGRGGGRDPSLSALIYKDEKLTVTQDLPVNDGKPHIVHFQYEVTEVKVSSWDAVLSSQSLFVEIPDGLLADGSKEGLLALLEFAEEKMKVNYVFICFRKGREDRAPLLKTFSFLGFEIVRPGHPCVPSRPDVMFMVYPLDQNLSDED

Key:
[1] = tested on: ornithine decarboxylase (ODC); test: Antizyme assay: spot test growth of ODC-knockout yeast complemented with human ODC on polyamine-free medium; assay type: cell-based; details: for inhibition of ODC activity (growth inhibition of the yeast cells): antizyme expressed from yeast promoters ADH, GaI1 or GPD in Y15034 with p413GaIL-ODC, PFSC plate, 30° C.
Sequence of ornithine decarboxylase (ODC) (P11926 whole entry): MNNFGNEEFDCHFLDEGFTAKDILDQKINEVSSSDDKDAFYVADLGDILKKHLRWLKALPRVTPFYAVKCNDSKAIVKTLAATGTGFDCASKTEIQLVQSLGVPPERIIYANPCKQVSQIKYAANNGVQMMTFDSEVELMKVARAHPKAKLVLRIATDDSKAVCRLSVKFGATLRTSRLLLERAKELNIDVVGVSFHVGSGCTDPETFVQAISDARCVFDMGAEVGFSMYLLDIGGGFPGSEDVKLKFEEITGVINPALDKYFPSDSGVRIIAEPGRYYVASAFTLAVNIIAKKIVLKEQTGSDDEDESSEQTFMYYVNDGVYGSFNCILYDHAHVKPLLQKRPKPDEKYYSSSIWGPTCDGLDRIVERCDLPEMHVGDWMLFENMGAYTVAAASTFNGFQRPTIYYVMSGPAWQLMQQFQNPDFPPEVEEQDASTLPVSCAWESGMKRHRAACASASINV
Protocol: The polyamine-dependent yeast strain Y15034 (ODC-knockout) and the corresponding wild-type strain Y10000 were each transformed by the Li acetate method with the plasmid p413GaIL-ODC. In addition, each of the 12 antizyme expression plasmids described in Example 2 and, as control, corresponding blank plasmids were cotransformed.
(§1) The transformants were plated out on Synthetic Complete (SC) medium (His-, Ura-,2% glucose, Difco). For each transformation, an overnight culture was inoculated in PFSC medium (His-, Ura-, 2% glucose). This was used firstly to carry out a spot test, i.e. the yeasts were adjusted to OD600 3.0 and subjected to 10-fold dilutions (5×). 2 μl of each dilution, starting with OD600 3.0, were placed as a drop on a PFSC plate (His-, Ura-, 2% galactose/raffinose [1:1]), and the plates were incubated at 30° C.

antizyme = test: Antizyme inhibitor assay: spot test growth of yeast co-expressing ODC, antizyme and AZI on polyamine-free medium; assay type: cell-based, human; details: AZI expressed from ADH, GaIL or GPD promoter (p415); PFSC plate, 30° C.
Protocol: The yeasts prepared in Example 6 were each additionally cotransformed with the 3 AZI expression plasmids (p415ADH-AZI, p415GaIL-AZI and p415GPD-AZI) described in Example 3 and with the corresponding blank plasmids.
as §1, with “Ura-,Leu-, 2% glucose).” for “Ura-,2% glucose, Difco).”, “Ura-, Leu-,” for “Ura-,”, “with an” for “with”, “3.0” for “3.0,”

Row | Molecule | inhibition of ODC activity (growth inhibition of the yeast cells) [1] | further results
1 | NCCCCN [putrescine, reference compound] | – | abolition of the antizyme-related growth inhibition ([1]; addition of putrescine to polyamine-free medium): abolish the growth inhibition
2 | Antizyme 1: human ODC antizyme 1 (Acc. No. D87914), protein that binds and inhibits ODC, expressed in yeast from plasmid | achieved inhibition of ODC activity only with the strong GPD promoter | –
3 | B1 | – | abolition of the ODC inhibition caused by antizyme (antizyme): the ODC inhibition caused by antizyme was abolished
4 | B2 | also by the GaI1 promoter | –
5 | B3 | effective inhibition of ODC activity was made possible also by the ADH promoter | –
